T1: FcγRIIb (human, UniProt P31994 43-217)
T1 construct: extracellular domain; Soluble extracellular domain with C-terminal His tag, used as analyte; also called FcgRIIb; CD32B; not shown: His tag at the C terminus
T1 sequence (looked up): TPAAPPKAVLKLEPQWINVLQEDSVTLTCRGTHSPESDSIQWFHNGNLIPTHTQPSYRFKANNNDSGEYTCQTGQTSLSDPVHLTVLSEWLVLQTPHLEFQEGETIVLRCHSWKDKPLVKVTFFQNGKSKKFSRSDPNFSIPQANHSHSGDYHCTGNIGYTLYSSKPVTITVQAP

T2: FcγRIIb extracellular domain with C-terminal His tag (human, UniProt P31994 43-217)
T2 construct: extracellular domain; also called 2b; FcgRIIb; not shown: His tag at the C terminus
T2 sequence (looked up): T1 sequence (looked up)

B1: GpH7-A5/GpH7-B3 variant S337_02A/GpL16-k0 (antibody, human IgG1, kappa)
heavy 1: not shown
heavy 2: not shown
light: DIVMTQSPLSLPVTPGEPASISCQASESLVHSNRNTYLHWYLQKPGQSPQLLIYKVSNRFSGVPDRFSGSGSGTDFTLKISRVEAEDVGVYYCSQNTHVPPTFGQGTKVEIERTVAAPSVFIFPPSDEQLKSGTASVVCLLNNFYPREAKVQWKVDNALQSGNSQESVTEQDSKDSTYSLSSTLTLSKADYEKHKVYACEVTHQGLSSPVTKSFNRGEC
notes: He Ab: mutation in one H chain only; also called He Ab
B2: GpH7-A5/GpH7-B3 variant P238_19Q/GpL16-k0 (antibody, human IgG1, kappa)
heavy 1: not shown
heavy 2: not shown
light: B1 light
notes: IgG1, anti-glypican-3; also called He Ab
B3: GpH7-A5/GpH7-B3 variant H268_03V/GpL16-k0 (antibody, human IgG1, kappa)
heavy 1: not shown
heavy 2: not shown
light: B1 light
notes: as for B2
B4: GpH7-A5/GpH7-B3 variant Y300_13S/GpL16-k0 (antibody, human IgG1, kappa)
heavy 1: not shown
heavy 2: not shown
light: B1 light
notes: as for B1
B5: GpH7-A5/GpH7-B3 variant P238_20W/GpL16-k0 (antibody, human IgG1, kappa)
heavy 1: not shown
heavy 2: not shown
light: B1 light
notes: as for B2
B6: GpH7-A5/GpH7-B3 variant Y300_11K/GpL16-k0 (antibody, human IgG1, kappa)
heavy 1: not shown
heavy 2: not shown
light: B1 light
notes: as for B1
B7: GpH7-A5/GpH7-B3 variant S239_01G/GpL16-k0 (antibody, human IgG1, kappa)
heavy 1: not shown
heavy 2: not shown
light: B1 light
notes: as for B2
B8: GpH7-A5/GpH7-B3 variant N325_01G/GpL16-k0 (antibody, human IgG1, kappa)
heavy 1: not shown
heavy 2: not shown
light: B1 light
notes: as for B2
B9: GpH7-A5/GpH7-B3 variant P238_16H/GpL16-k0 (antibody, human IgG1, kappa)
heavy 1: not shown
heavy 2: not shown
light: B1 light
notes: as for B2
B10: GpH7-A5/GpH7-B3 variant P238_15Y/GpL16-k0 (antibody, human IgG1, kappa)
heavy 1: not shown
heavy 2: not shown
light: B1 light
notes: as for B2
B11: GpH7-A5/GpH7-B3 variant A327_01G/GpL16-k0 (antibody, human IgG1, kappa)
heavy 1: not shown
heavy 2: not shown
light: B1 light
notes: as for B2
B12: GpH7-A5/GpH7-B3 variant S239_05P/GpL16-k0 (antibody, human IgG1, kappa)
heavy 1: not shown
heavy 2: not shown
light: B1 light
notes: as for B2
B13: GpH7-A5/GpH7-B3 variant Y300_06M/GpL16-k0 (antibody, human IgG1, kappa)
heavy 1: not shown
heavy 2: not shown
light: B1 light
notes: as for B1
B14: GpH7-A5/GpH7-B3 variant H268_05P/GpL16-k0 (antibody, human IgG1, kappa)
heavy 1: not shown
heavy 2: not shown
light: B1 light
notes: as for B2
B15: GpH7-A5/GpH7-B3 variant P238_06M/GpL16-k0 (antibody, human IgG1, kappa)
heavy 1: not shown
heavy 2: not shown
light: B1 light
notes: as for B2
B16: GpH7-A5/GpH7-B3 variant S239_06M/GpL16-k0 (antibody, human IgG1, kappa)
heavy 1: not shown
heavy 2: not shown
light: B1 light
notes: as for B2
B17: GpH7-A5/GpH7-B3 variant S239_07I/GpL16-k0 (antibody, human IgG1, kappa)
heavy 1: not shown
heavy 2: not shown
light: B1 light
notes: as for B2
B18: GpH7-A5/GpH7-B3 variant S337_04F/GpL16-k0 (antibody, human IgG1, kappa)
heavy 1: not shown
heavy 2: not shown
light: B1 light
notes: as for B1
B19: GpH7-A5/GpH7-B3 variant Y300_12R/GpL16-k0 (antibody, human IgG1, kappa)
heavy 1: not shown
heavy 2: not shown
light: B1 light
notes: as for B1
B20: GpH7-A5/GpH7-B3 variant P238_08L/GpL16-k0 (antibody, human IgG1, kappa)
heavy 1: not shown
heavy 2: not shown
light: B1 light
notes: as for B2
B21: GpH7-A5/GpH7-B3 variant Y300_09D/GpL16-k0 (antibody, human IgG1, kappa)
heavy 1: not shown
heavy 2: not shown
light: B1 light
notes: as for B1
B22: GpH7-A5/GpH7-B3 variant S337_19Q/GpL16-k0 (antibody, human IgG1, kappa)
heavy 1: not shown
heavy 2: not shown
light: B1 light
notes: as for B1
B23: GpH7-A5/GpH7-B3 variant K326_20W/GpL16-k0 (antibody, human IgG1, kappa)
heavy 1: not shown
heavy 2: not shown
light: B1 light
notes: as for B2

What was measured:
FcγRIa = target: T3, FcγRIa (human, UniProt P12314 16-292); assay: SPR (Biacore), captured antibody, FcγR as analyte, relative binding
T3 construct: extracellular domain; Soluble extracellular domain with C-terminal His tag, used as analyte; also called FcgRI; CD64; not shown: His tag at the C terminus

FcγRIIb = target: T1, FcγRIIb; assay: as above
[1] = target: T4, FcγRIIIa extracellular domain with C-terminal His tag (human, UniProt P08637 17-208); assay: SPR (Biacore), relative to GpH7-A5/GpH7-B3/GpL16-k0 = 100
T4 construct: extracellular domain; also called 3a; FcgRIIIa; not shown: His tag at the C terminus

[2] = target: T2, FcγRIIb extracellular domain with …; assay: as above

T3 sequence (P12314 16-292): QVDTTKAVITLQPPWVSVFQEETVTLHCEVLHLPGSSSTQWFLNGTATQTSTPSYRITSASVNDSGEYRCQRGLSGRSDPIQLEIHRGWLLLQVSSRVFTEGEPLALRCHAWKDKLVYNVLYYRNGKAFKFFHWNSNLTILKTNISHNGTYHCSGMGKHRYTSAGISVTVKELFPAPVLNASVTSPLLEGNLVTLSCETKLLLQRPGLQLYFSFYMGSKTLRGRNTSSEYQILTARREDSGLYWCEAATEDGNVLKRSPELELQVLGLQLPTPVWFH
T4 sequence (P08637 17-208): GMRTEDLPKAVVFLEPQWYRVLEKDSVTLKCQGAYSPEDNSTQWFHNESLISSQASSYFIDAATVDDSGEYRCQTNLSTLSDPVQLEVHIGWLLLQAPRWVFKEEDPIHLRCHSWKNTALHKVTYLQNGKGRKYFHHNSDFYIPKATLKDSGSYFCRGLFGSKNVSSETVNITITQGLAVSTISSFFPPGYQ

He/Con_1a (FcγRIa)	He/Con_2b (FcγRIIb)	He/Con_3a [1]	He/Con_2b [2]	Binder
106 % of GpH7-A5/GpH7-B3/GpL16-k0	97.2 % of GpH7-A5/GpH7-B3/GpL16-k0			B1
		55.8 % (control = 100)	110 % (control = 100)	B2
		92.3 % (control = 100)	114 % (control = 100)	B3
111 % of GpH7-A5/GpH7-B3/GpL16-k0	53.9 % of GpH7-A5/GpH7-B3/GpL16-k0			B4
		49.7 % (control = 100)	123 % (control = 100)	B5
107 % of GpH7-A5/GpH7-B3/GpL16-k0	51.6 % of GpH7-A5/GpH7-B3/GpL16-k0			B6
		76.2 % (control = 100)	144 % (control = 100)	B7
		28 % (control = 100)	101 % (control = 100)	B8
		30.7 % (control = 100)	115 % (control = 100)	B9
		64.5 % (control = 100)	218 % (control = 100)	B10
		72.4 % (control = 100)	116 % (control = 100)	B11
		14.9 % (control = 100)	102 % (control = 100)	B12
112 % of GpH7-A5/GpH7-B3/GpL16-k0	84.3 % of GpH7-A5/GpH7-B3/GpL16-k0			B13
		76.4 % (control = 100)	116 % (control = 100)	B14
		30.5 % (control = 100)	174 % (control = 100)	B15
		78.2 % (control = 100)	101 % (control = 100)	B16
		79.3 % (control = 100)	107 % (control = 100)	B17
106 % of GpH7-A5/GpH7-B3/GpL16-k0	97.8 % of GpH7-A5/GpH7-B3/GpL16-k0			B18
105 % of GpH7-A5/GpH7-B3/GpL16-k0	41.2 % of GpH7-A5/GpH7-B3/GpL16-k0			B19
		75.5 % (control = 100)	204 % (control = 100)	B20
112 % of GpH7-A5/GpH7-B3/GpL16-k0	93.2 % of GpH7-A5/GpH7-B3/GpL16-k0			B21
105 % of GpH7-A5/GpH7-B3/GpL16-k0	99.7 % of GpH7-A5/GpH7-B3/GpL16-k0			B22
		84.8 % (control = 100)	148 % (control = 100)	B23

Reference: patent publication US20150344570A1 (published 2015)
